Laboratory results as given in IntAct's records for PubMed 34400613.

B1: Ras GTPase-activating protein-binding protein 2 (Homo sapiens), Q9UN86 (parent)
chain: MVMEKPSPLLVGREFVRQYYTLLNKAPEYLHRFYGRNSSYVHGGVDASGKPQEAVYGQNDIHHKVLSLNFSECHTKIRHVDAHATLSDGVVVQVMGLLSNSGQPERKFMQTFVLAPEGSVPNKFYVHNDMFRYEDEVFGDSEPELDEESEDEVEEEQEERQPSPEPVQENANSGYYEAHPVTNGIEEPLEESSHEPEPEPESETKTEELKPQVEEKNLEELEEKSTTPPPAEPVSLPQEPPKAFSWASVTSKNLPPSGTVSSSGIPPHVKAPVSQPRVEAKPEVQSQPPRVREQRPRERPGFPPRGPRPGRGDMEQNDSDNRRIIRYPDSHQLFVGNLPHDIDENELKEFFMSFGNVVELRINTKGVGGKLPNFGFVVFDDSEPVQRILIAKPIMFRGEVRLNVEEKKTRAARERETRGGGDDRRDIRRNDRGPGGPRGIVGGGMMRDRDGRGPPPRGGMAQKLGSGRGTGQMEGRFTGQRR

Variants of: B1
Conditions: with ncap_sars2 N

Variant	effect of a mutation on the interaction
MVMEKPSPLLVGREAVRQYYTLLNKAPEYLHRAYGRNSSYVHGGVDASGKPQEAVYGQNDIHHKVLSLNFSECHTKIRHVDAHATLSDGVVVQVMGLLSNSGQPERKFMQTFVLAPEGSVPNKAYVHNDMFRYEDEVFGDSEPELDEESEDEVEEEQEERQPSPEPVQENANSGYYEAHPVTNGIEEPLEESSHEPEPEPESETKTEELKPQVEEKNLEELEEKSTTPPPAEPVSLPQEPPKAFSWASVTSKNLPPSGTVSSSGIPPHVKAPVSQPRVEAKPEVQSQPPRVREQRPRERPGFPPRGPRPGRGDMEQNDSDNRRIIRYPDSHQLFVGNLPHDIDENELKEFFMSFGNVVELRINTKGVGGKLPNFGFVVFDDSEPVQRILIAKPIMFRGEVRLNVEEKKTRAARERETRGGGDDRRDIRRNDRGPGGPRGIVGGGMMRDRDGRGPPPRGGMAQKLGSGRGTGQMEGRFTGQRR [F15A;F33A;F124A]	disrupting interaction strength
MVMEKPSPLLVGREAVRQYYTLLNKAPEYLHRFYGRNSSYVHGGVDASGKPQEAVYGQNDIHHKVLSLNFSECHTKIRHVDAHATLSDGVVVQVMGLLSNSGQPERKFMQTFVLAPEGSVPNKFYVHNDMFRYEDEVFGDSEPELDEESEDEVEEEQEERQPSPEPVQENANSGYYEAHPVTNGIEEPLEESSHEPEPEPESETKTEELKPQVEEKNLEELEEKSTTPPPAEPVSLPQEPPKAFSWASVTSKNLPPSGTVSSSGIPPHVKAPVSQPRVEAKPEVQSQPPRVREQRPRERPGFPPRGPRPGRGDMEQNDSDNRRIIRYPDSHQLFVGNLPHDIDENELKEFFMSFGNVVELRINTKGVGGKLPNFGFVVFDDSEPVQRILIAKPIMFRGEVRLNVEEKKTRAARERETRGGGDDRRDIRRNDRGPGGPRGIVGGGMMRDRDGRGPPPRGGMAQKLGSGRGTGQMEGRFTGQRR [F15A]	decreasing interaction strength
MVMEKPSPLLVGREAVRQYYTLLNKAPEYLHRAYGRNSSYVHGGVDASGKPQEAVYGQNDIHHKVLSLNFSECHTKIRHVDAHATLSDGVVVQVMGLLSNSGQPERKFMQTFVLAPEGSVPNKFYVHNDMFRYEDEVFGDSEPELDEESEDEVEEEQEERQPSPEPVQENANSGYYEAHPVTNGIEEPLEESSHEPEPEPESETKTEELKPQVEEKNLEELEEKSTTPPPAEPVSLPQEPPKAFSWASVTSKNLPPSGTVSSSGIPPHVKAPVSQPRVEAKPEVQSQPPRVREQRPRERPGFPPRGPRPGRGDMEQNDSDNRRIIRYPDSHQLFVGNLPHDIDENELKEFFMSFGNVVELRINTKGVGGKLPNFGFVVFDDSEPVQRILIAKPIMFRGEVRLNVEEKKTRAARERETRGGGDDRRDIRRNDRGPGGPRGIVGGGMMRDRDGRGPPPRGGMAQKLGSGRGTGQMEGRFTGQRR [F15A;F33A]	decreasing interaction strength
